Results on 1 molecule are retold here after paper PMC7689490 (Nature Communications, 2020).

[ ]: non-standard residue; d: D form. Fluos = fluorescein label; Ahx = NCCCCCC(=O)O

The assay addresses T1, macrophage migration-inhibitory factor (MIF), recombinant human, unlabelled (human, UniProt P14174 1-115).
T1 construct: human MIF; For some biophysical methods a 90-95% pure preparation was used; also called WT-MIF; human MIF
T1 sequence (looked up): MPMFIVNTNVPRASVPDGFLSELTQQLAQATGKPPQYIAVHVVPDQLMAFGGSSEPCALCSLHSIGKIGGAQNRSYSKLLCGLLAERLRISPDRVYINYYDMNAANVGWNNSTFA
The assay is described as follows: other fluorescence titration; Fluos-labelled CXCR4 ectodomain peptide at 5 nM titrated with unlabelled MIF, MIF(10xAla), CXCL12 or MIF peptide fragments; 10 mM sodium phosphate, pH 7.4, 1% HFIP; emission at 522 nm; apparent KD, 1/1 binding model. The settings on record: both partners purified.

B1: Fluos-[A^102, A^103, A^104, A^107, A^189, A^190, A^195]-msR4M-L1 (designed binder)
chain: Fluos-DAVANAAAGNALCK[Ahx][Ado]DRYICDRAAPNDLAV-NH2
modifications: cysteine pairing not given here
notes: The functional assays used the unlabelled peptide; also called Fluos-msR4M-L1(7xAla); source: synthetic peptide (Fmoc SPPS on Rink amide MBHA resin, RP-HPLC purified)
B1: the Kd was above 1000 nM.
